Here are results for three molecules from publication PMC9706529, “Identification of a S-(2-succino)cysteine breakdown pathway that uses a novel S-(2-succino) lyase” (The Journal of Biological Chemistry, 2022).

One series concerns the target T1, D. dadantii 2SL (Dd) (Dickeya dadantii, UniProt E0SKP1).
T1 construct: gene Dda3937_00284; full-length, N-terminal hexahistidine tag (pET28b), expressed in E. coli BL21-(DE3)-RIPL, Ni-NTA purified; tag removal not mentioned
T1 sequence (E0SKP1 1-454): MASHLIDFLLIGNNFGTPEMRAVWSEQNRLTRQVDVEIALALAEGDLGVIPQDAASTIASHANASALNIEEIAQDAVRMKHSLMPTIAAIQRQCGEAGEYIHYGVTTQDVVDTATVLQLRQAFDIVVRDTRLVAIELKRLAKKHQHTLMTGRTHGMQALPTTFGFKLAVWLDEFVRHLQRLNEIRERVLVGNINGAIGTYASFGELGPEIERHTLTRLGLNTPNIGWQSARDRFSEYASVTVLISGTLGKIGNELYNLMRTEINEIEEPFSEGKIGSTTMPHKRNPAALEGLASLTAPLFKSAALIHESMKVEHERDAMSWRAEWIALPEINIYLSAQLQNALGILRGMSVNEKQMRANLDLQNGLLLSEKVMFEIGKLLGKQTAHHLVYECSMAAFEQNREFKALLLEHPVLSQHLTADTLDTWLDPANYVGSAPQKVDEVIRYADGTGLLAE
Nature of the series: HPLC, […] nm, 2SNAC synthesis. In kind it is biochemical. The conditions noted are these: 50 mM Tris-HCl pH 8.0, 21 °C, 4.0 mM NAC; synthesis direction; read-out: Kinetic parameter / Km.

The next series has as its target T2, E. italicus 2SL (Ei) (Enterococcus italicus, UniProt E6LDH5).
T2 construct: gene purB; full-length, N-terminal hexahistidine tag (pET28b), expressed in E. coli BL21-(DE3)-RIPL, Ni-NTA purified; tag removal not mentioned
T2 sequence (E6LDH5 1-455): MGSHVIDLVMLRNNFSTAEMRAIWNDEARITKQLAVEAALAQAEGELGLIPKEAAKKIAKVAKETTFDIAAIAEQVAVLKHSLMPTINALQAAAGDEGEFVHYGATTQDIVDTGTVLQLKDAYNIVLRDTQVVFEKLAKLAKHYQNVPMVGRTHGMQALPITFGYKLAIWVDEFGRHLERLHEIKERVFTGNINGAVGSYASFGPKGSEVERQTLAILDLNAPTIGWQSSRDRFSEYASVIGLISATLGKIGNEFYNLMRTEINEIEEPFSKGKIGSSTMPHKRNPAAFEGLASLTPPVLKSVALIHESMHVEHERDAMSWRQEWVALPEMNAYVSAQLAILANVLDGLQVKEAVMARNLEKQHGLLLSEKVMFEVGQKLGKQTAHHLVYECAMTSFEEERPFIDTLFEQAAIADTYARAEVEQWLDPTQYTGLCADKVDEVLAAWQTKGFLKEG
Briefly: HPLC, […] nm, 2SNAC synthesis. In kind it is biochemical. The conditions noted are these: 50 mM Tris-HCl pH 8.0, 21 °C, 4.0 mM NAC; synthesis direction; read-out: Kinetic parameter / Km.

Substrate in series [1]: N[C@@H](CSC(CC(=O)O)C(=O)O)C(=O)O
Nature of the series: purified protein. In kind it is biochemical, Dickeya dadantii. The conditions noted are these: 100 mM Tris-HCl pH 8.0, 21 °C, 40 mM glutamate, 2 mM NAD+, breakdown direction.

Substrate in series [2]: CC(=O)N[C@@H](CS)C(=O)O
Briefly: purified protein. In kind it is biochemical, Dickeya dadantii. The note with it: 50 mM Tris-HCl pH 8.0, 21 °C, 30 mM fumarate, synthesis direction.

Substrate in series [3]: CC(=O)N[C@@H](CSC(CC(=O)O)C(=O)O)C(=O)O
Briefly: purified protein. In kind it is biochemical, Dickeya dadantii. The note with it: 100 mM Tris-HCl pH 8.0, 21 °C, 40 mM glutamate, 2 mM NAD+, breakdown direction.

Substrate in series [4]: N[C@@H](CS)C(=O)O
Briefly: purified protein. In kind it is biochemical, Dickeya dadantii. The conditions noted are these: 50 mM Tris-HCl pH 8.0, 21 °C, 30 mM fumarate, synthesis direction.

Substrate in series [5]: N[C@@H](CSC(CC(=O)O)C(=O)O)C(=O)O
Briefly: purified protein. In kind it is biochemical, Enterococcus italicus. The note with it: 100 mM Tris-HCl pH 8.0, 21 °C, 40 mM glutamate, 2 mM NAD+, breakdown direction.

Substrate in series [6]: CC(=O)N[C@@H](CS)C(=O)O
Briefly: purified protein. In kind it is biochemical, Enterococcus italicus. The conditions noted are these: 50 mM Tris-HCl pH 8.0, 21 °C, 30 mM fumarate, synthesis direction.

Substrate in series [7]: CC(=O)N[C@@H](CSC(CC(=O)O)C(=O)O)C(=O)O
Nature of the series: purified protein. In kind it is biochemical, Enterococcus italicus. The note with it: 100 mM Tris-HCl pH 8.0, 21 °C, 40 mM glutamate, 2 mM NAD+, breakdown direction.

Substrate in series [8]: N[C@@H](CS)C(=O)O
Nature of the series: purified protein. The conditions noted are these: 50 mM Tris-HCl pH 8.0, 21 °C, 30 mM fumarate, synthesis direction. In kind it is biochemical, Enterococcus italicus.

Take `O=C(O)/C=C/C(=O)O` [fumarate]: the Km at D. dadantii 2SL (Dd) came out at 3240 ± 300 µM; on E. italicus 2SL (Ei) it was 230 ± 20 µM.

B1: D. dadantii 2SL (Dd) (Dickeya dadantii 3937) (protein)
chain: T1 sequence (E0SKP1 1-454)
notes: full-length, N-terminal hexahistidine tag (pET28b), expressed in E. coli BL21-(DE3)-RIPL, Ni-NTA purified; tag removal not mentioned
Take B1: in “purified protein [1]”, the Km is 12300 ± 1100 µM, the Vmax was 0.069 µmol/min/mg, the kcat came to 0.06 ± 0.004 s⁻¹ and the kcat/Km is 4.9 M⁻¹ s⁻¹. In “purified protein [2]”, the Km turned out to be 690 ± 50 µM, the Vmax amounted to 27.6 µmol/min/mg, the kcat is 24.2 ± 3.7 s⁻¹ and the kcat/Km was 35000 M⁻¹ s⁻¹. Also, in the series “purified protein [3]”, the Km is 1200 ± 220 µM, the Vmax was 0.4 µmol/min/mg, the kcat came to 0.35 ± 0.05 s⁻¹ and the kcat/Km is 290 M⁻¹ s⁻¹. In “purified protein [4]”, the Km came to 19000 ± 1900 µM, the Vmax amounted to 11.1 µmol/min/mg, the kcat worked out at 9.7 ± 0.4 s⁻¹ and the kcat/Km worked out at 510 M⁻¹ s⁻¹.

B2: E. italicus 2SL (Ei) (Enterococcus italicus DSM 15952) (protein)
chain: T2 sequence (E6LDH5 1-455)
notes: as for B1
For the molecule B2, the Km in the series “purified protein [5]” is 10700 ± 2300 µM; in the series “purified protein [6]” it was 390 ± 30 µM; in “purified protein [7]”, 1400 ± 100 µM; in the series “purified protein [8]”, 17800 ± 3600 µM. Besides, the Vmax in “purified protein [5]” worked out at 0.058 µmol/min/mg; in “purified protein [6]”, 105 µmol/min/mg; in the series “purified protein [7]” it was 2.42 µmol/min/mg; in “purified protein [8]” it was 11.9 µmol/min/mg. Moreover, the kcat in “purified protein [5]” was 0.051 ± 0.004 s⁻¹; in the series “purified protein [6]” it was 92.1 ± 7.1 s⁻¹; in the series “purified protein [7]”, 2.12 ± 0.21 s⁻¹; in the series “purified protein [8]” it was 10.4 ± 1.5 s⁻¹. Besides, the kcat/Km in “purified protein [5]” stood at 4.7 M⁻¹ s⁻¹; in “purified protein [6]”, 236000 M⁻¹ s⁻¹; in “purified protein [7]”, 1510 M⁻¹ s⁻¹; in “purified protein [8]”, 580 M⁻¹ s⁻¹.
